From IntAct's records for PubMed 16311606

B1: Polycystin-2 (Homo sapiens), Q13563 (parent)
chain: MVNSSRVQPQQPGDAKRPPAPRAPDPGRLMAGCAAVGASLAAPGGLCEQRGLEIEMQRIRQAAARDPPAGAAASPSPPLSSCSRQAWSRDNPGFEAEEEEEEVEGEEGGMVVEMDVEWRPGSRRSAASSAVSSVGARSRGLGGYHGAGHPSGRRRRREDQGPPCPSPVGGGDPLHRHLPLEGQPPRVAWAERLVRGLRGLWGTRLMEESSTNREKYLKSVLRELVTYLLFLIVLCILTYGMMSSNVYYYTRMMSQLFLDTPVSKTEKTNFKTLSSMEDFWKFTEGSLLDGLYWKMQPSNQTEADNRSFIFYENLLLGVPRIRQLRVRNGSCSIPQDLRDEIKECYDVYSVSSEDRAPFGPRNGTAWIYTSEKDLNGSSHWGIIATYSGAGYYLDLSRTREETAAQVASLKKNVWLDRGTRATFIDFSVYNANINLFCVVRLLVEFPATGGVIPSWQFQPLKLIRYVTTFDFFLAACEIIFCFFIFYYVVEEILEIRIHKLHYFRSFWNCLDVVIVVLSVVAIGINIYRTSNVEVLLQFLEDQNTFPNFEHLAYWQIQFNNIAAVTVFFVWIKLFKFINFNRTMSQLSTTMSRCAKDLFGFAIMFFIIFLAYAQLAYLVFGTQVDDFSTFQECIFTQFRIILGDINFAEIEEANRVLGPIYFTTFVFFMFFILLNMFLAIINDTYSEVKSDLAQQKAEMELSDLIRKGYHKALVKLKLKKNTVDDISESLRQGGGKLNFDELRQDLKGKGHTDAEIEAIFTKYDQDGDQELTEHEHQQMRDDLEKEREDLDLDHSSLPRPMSSRSFPRSLDDSEEDDDEDSGHSSRRRGSISSGVSYEEFQVLVRRVDRMEHSIGSIVSKIDAVIVKLEIMERAKLKRREVLGRLLDGVAEDERLGRDSEIHREQMERLVREELERWESDDAASQISHGLGTPVGLNGQPRPRSSRPSSSQSTEGMEGAGGNGSSNVHV
partner: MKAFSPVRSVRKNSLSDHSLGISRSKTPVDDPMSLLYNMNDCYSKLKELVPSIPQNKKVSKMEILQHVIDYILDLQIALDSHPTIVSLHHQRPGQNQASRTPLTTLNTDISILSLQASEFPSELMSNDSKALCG

Variants of: B1
Conditions: with id2_human ID2, Q02363

effect of a mutation on the interaction	Variant
disrupting interaction	S812A
